Experimental findings from publication PMC3288308 are described below.

The target of experiment [1] is Human plasma fibronectin (human). The experiment is described as follows: SPR. On the technique in general: In SPR one partner is held on a chip, and binding of the other changes the refractive index at the surface.
Experiment [2] deals with Treponema pallidum adhesin protein fragment rTp0483 (recombinant C-terminal portion of Tp0483) (Treponema pallidum). Description: SPR.
The target is the same in experiment [3]. The experiment is described as follows: quartz crystal microbalance.
The target is the same in experiment [4]. Description: SPR. This is another data set of the same source.
The target is the same in experiment [5]. Description: SPR. The source holds these as a separate data set.
For experiment [6] the target is unchanged. The experiment is described as follows: quartz crystal microbalance. This is another data set of the same source.
Experiment [7] has the same target. Description: SPR. This is another data set of the same source.
The target is the same in experiment [8]. The experiment is described as follows: quartz crystal microbalance. The source holds these as a separate data set.
Experiment [9] has the same target. The experiment is described as follows: quartz crystal microbalance. This is another data set of the same source.

Like-named read-outs stand apart in the source and are kept apart here.

Treponema pallidum adhesin protein fragment rTp0483 (recombinant C-terminal portion of Tp0483) (Treponema pallidum), sequence (O83496 22-374): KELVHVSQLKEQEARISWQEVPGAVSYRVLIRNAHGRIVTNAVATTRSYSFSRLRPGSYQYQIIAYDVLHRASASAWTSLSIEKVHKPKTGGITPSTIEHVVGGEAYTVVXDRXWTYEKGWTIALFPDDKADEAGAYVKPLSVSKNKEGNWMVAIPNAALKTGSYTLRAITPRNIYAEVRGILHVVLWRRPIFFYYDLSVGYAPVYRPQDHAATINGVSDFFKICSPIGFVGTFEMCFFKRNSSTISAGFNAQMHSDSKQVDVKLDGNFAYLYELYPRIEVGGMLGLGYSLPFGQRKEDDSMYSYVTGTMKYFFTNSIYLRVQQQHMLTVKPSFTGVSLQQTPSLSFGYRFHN

On to “Peptide D2, residues 316-333 of the complete Tp0483 sequence”, for which the % FN binding to rTp0483 with the peptide, of FN alone in [1] came to 88%.

For “Human plasma fibronectin (natural protein)”, in experiment [2], the KA1 (bivalent analyte model, reaction 1) was 1.03e+09 M⁻¹; the KA2 (bivalent analyte model, reaction 2) was 403 1/RU; the surface mass density of FN bound (SPR) in the presence of anti-Tp0483#1 came out at 373 pg/mm^2; the surface mass density of FN bound (SPR) in the presence of anti-Tp0483#2 amounted to 270 pg/mm^2. Moreover, in [2], the surface mass density of FN bound (SPR), FN alone amounted to 282 pg/mm^2; the surface mass density of FN bound (SPR), FN preincubated with 20 µg/mL anti-RGD came out at 91 pg/mm^2; the surface mass density of FN bound (SPR), FN preincubated with 50 µg/mL anti-RGD turned out to be 47 pg/mm^2; the surface mass density of FN bound (SPR), no antibody is 846 pg/mm^2. Further, in experiment [3], the surface mass density of FN bound (QCM) stood at 363 pg/mm^2. Moreover, in experiment [4], the KA2 (bivalent analyte model, reaction 2) is 0.0225 1/RU and the KD1 (inverse of KA1, reaction 1 of the bivalent analyte model) is 0.65 nM. Moreover, in [5], the KA2 (bivalent analyte model, reaction 2) was 0.0403 1/RU and the KD1 (inverse of KA1, reaction 1 of the bivalent analyte model) was 0.97 nM. In addition, the surface mass density of FN bound (QCM) in [6] is 60 pg/mm^2. In experiment [7], the KA1 (bivalent analyte model, reaction 1) came out at 1.53e+09 M⁻¹ and the KA2 (bivalent analyte model, reaction 2) was 225 1/RU. Further, the surface mass density of FN bound (QCM) in experiment [8] was 3.5 pg/mm^2. Besides, the surface mass density of FN bound (QCM) in experiment [9] is 1380 pg/mm^2.

With Type A gelatin, in [1], the surface mass density of gelatin bound (SPR) on FN adsorbed on the SAM was 940 pg/mm^2 and the surface mass density of gelatin bound (SPR) on rTp0483+FN stood at 211 pg/mm^2.
